Key:
[1] = target: T1, human CD47 ECD protein (human, UniProt Q08722 19-139, limits assumed); assay: ELISA on plate-coated human CD47 ECD (1 µg/mL), goat anti-human IgG-Fc-HRP, OD450
T1 construct: extracellular domain; The assays say only 'human CD47 ECD protein' / 'Human CD47 protein'; 55 kDa was used as molecular weight in SPR; also called human CD47 protein; W345-hPro1.ECD (sino)
Description: Then the Goat anti-human IgG-Fc-HRP secondary antibody was added and incubated for 1 hr. […] All incubation steps were performed at room temperature, and the plates were washed 5 times with PBST at pH 7.4 between steps.

[2] = target: CD147.his; assay: non-specific binding ELISA, protein coated 1 µg/mL, lead antibody at 10 ug/ml
Description: (§1) The 96-well high binding plates were coated with 14 different proteins at 1 μg/mL at 4° C. overnight and blocked with 2% BSA-PBS for 1 hr. […] Then the Goat anti-human IgG-Fc-HRP secondary antibody was added and incubated for 1 hr. The TMB peroxidase substrate solution was added and then reaction was stopped after 12 minutes using 2M HCl. All incubation steps were performed at room temperature, and the plates were washed 5 times with PBST at pH 7.4 between steps. The absorbance of testing samples was measured at 450 nm with a multiwall plate reader (SpectraMax® M5e).

[3] = target: CD22.his; assay: as above
Description: as §1

[4] = target: CD40.his; assay: as above
CD40.his, sequence (P25942 21-193): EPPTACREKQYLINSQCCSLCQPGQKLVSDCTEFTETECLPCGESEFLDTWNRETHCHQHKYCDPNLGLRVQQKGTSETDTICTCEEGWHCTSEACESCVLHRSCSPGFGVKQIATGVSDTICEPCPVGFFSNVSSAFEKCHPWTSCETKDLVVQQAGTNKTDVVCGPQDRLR
Description: as §1

[5] = target: 4-1B8.his; assay: as above
4-1B8.his, sequence (Q07011 24-186): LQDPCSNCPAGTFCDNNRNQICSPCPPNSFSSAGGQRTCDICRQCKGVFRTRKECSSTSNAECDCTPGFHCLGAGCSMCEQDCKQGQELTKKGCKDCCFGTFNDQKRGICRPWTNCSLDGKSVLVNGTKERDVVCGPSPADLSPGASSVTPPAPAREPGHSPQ
Description: as §1

[6] = target: OX40.his; assay: as above
OX40.his, sequence (P43489 29-214): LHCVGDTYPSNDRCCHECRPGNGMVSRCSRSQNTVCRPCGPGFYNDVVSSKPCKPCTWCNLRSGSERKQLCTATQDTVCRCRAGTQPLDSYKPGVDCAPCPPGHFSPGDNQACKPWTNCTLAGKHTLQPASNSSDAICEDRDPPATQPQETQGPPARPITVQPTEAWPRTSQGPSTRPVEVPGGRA
Description: as §1

[7] = target: CD3.his; assay: as above
Description: as §1

[8] = target: T2, PD-1.his (Homo sapiens (Human), UniProt Q15116 25-170); assay: as above
T2 sequence (Q15116 25-170 limits assumed): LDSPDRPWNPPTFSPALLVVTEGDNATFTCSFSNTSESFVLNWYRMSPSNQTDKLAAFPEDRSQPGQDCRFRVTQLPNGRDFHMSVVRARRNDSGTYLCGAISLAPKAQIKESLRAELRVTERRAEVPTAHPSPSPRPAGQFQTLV
Description: as §1

[9] = target: VEGFR2.his; assay: as above
VEGFR2.his, sequence (P35968 20-764): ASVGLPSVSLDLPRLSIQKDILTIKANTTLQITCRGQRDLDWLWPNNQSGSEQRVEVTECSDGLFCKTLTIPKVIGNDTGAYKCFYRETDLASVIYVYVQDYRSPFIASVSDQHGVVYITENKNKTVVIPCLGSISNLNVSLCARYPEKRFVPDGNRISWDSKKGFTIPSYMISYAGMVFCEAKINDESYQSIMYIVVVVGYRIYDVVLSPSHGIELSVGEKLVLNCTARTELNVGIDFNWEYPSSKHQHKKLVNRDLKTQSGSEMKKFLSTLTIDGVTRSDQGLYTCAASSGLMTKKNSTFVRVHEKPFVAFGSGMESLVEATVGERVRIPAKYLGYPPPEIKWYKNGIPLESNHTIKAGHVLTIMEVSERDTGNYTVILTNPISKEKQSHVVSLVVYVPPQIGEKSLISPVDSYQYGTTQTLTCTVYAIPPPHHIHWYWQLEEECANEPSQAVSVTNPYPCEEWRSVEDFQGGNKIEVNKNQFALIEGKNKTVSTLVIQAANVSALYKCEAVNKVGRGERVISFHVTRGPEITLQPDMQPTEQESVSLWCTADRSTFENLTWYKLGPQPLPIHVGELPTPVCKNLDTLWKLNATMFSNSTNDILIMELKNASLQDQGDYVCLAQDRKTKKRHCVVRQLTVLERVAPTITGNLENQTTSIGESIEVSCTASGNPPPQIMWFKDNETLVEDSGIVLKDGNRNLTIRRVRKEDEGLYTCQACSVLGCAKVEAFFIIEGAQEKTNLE
Description: as §1

[10] = target: Factor Eight; assay: as above
Description: as §1

[11] = target: FGFR.his; assay: as above
Description: as §1

[12] = target: T3, HSA. (UniProt P02768 25-609); assay: as above
Description: as §1

[13] = target: CTLA4.his; assay: as above
CTLA4.his, sequence (P16410 36-161): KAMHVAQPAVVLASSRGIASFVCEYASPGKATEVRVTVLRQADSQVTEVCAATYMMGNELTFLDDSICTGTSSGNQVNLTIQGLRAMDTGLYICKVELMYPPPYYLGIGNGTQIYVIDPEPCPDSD
Description: as §1

[14] = target: T4, HER3.his (Homo sapiens (Human), UniProt P21860 20-643); assay: as above
Description: as §1

[15] = target: VEGF.his; assay: as above
VEGF.his, sequence (P15692 whole entry): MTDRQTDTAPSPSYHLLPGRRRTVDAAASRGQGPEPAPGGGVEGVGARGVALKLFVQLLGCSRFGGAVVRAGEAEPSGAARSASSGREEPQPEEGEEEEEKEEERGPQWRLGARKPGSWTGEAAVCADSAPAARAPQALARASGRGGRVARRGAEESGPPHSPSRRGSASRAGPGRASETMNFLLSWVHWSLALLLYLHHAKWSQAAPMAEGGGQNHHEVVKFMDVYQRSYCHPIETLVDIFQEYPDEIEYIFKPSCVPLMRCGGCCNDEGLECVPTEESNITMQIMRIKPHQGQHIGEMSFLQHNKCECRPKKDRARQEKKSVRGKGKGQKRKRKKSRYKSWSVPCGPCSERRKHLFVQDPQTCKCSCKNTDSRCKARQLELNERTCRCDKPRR
Description: as §1

[16] = target: T5, human CD47 on engineered CHO-K1 cells (human, UniProt Q08722 19-323); assay: FACS on CHO-K1 cells expressing human CD47 (CHOK1-huCD47), goat anti-human IgG-Fc PE
T5 construct: whole, on cells; also called human CD47-expressing cells
Description: (§2) Briefly, the engineered CD47-expressing cells were coated into 96-well U-bottom plates at a density of 1×10⁵ cells/well and centrifuged at 1500 rpm at 4° C. for 4 min before removing the supernatant. […] The cells were washed twice with 180 μL 1% BSA-PBS. The secondary antibody, Goat Anti-human IgG-Fc PE was added to re-suspend cells and incubated at 4° C. in the dark for 30 min followed by washing with 180 μL 1% BSA-PBS. At the end, the cells were re-suspended in 100 μL 1% BSA-PBS, and the fluorescence intensity was measured by FACS (BD Canto II) and analyzed by FlowJo Version software. The binding EC50s were calculated by using GraphPad Prism software equation: Nonlinear regression (curve fit)—log (agonist) vs. response—Variable slope.

[17] = target: T2, PD-1.his; assay: ELISA, protein coated at 1 µg/mL
[18] = target: T3, HSA.; assay: ELISA, protein coated at 1 µg/mL
[19] = target: T4, HER3.his; assay: ELISA, protein coated at 1 µg/mL
[20] = target: T6, CD47 on human red blood cells (human, UniProt Q08722 19-323); assay: FACS on human red blood cells, goat anti-human IgG-Fc PE
T6 construct: whole, on cells; also called human RBCs; hRBC
Description: The cells were washed twice with 180 μL 1% BSA-PBS. The secondary antibody, Goat Anti-human IgG-Fc PE was added to re-suspend cells and incubated at 4° C. in the dark for 30 min followed by washing with 180 μL 1% BSA-PBS. At the end, the cells were re-suspended in 100 μL 1% BSA-PBS, and the fluorescence intensity was measured by FACS (BD Canto II) and analyzed by FlowJo Version software. The binding EC50s were calculated by using GraphPad Prism software equation: Nonlinear regression (curve fit)—log (agonist) vs. response—Variable slope.

[21] = target: T7, cynomolgus monkey CD47 on engineered CHO-K1 cells (cynomolgus monkey, UniProt A0A5F8AK49 19-323 (rhesus entry)); assay: FACS on CHO-K1 cells expressing cynomolgus CD47 (CHOK1-cynoCD47), goat anti-human IgG-Fc PE
T7 construct: whole, on cells; also called cyno CD47 expressing cells; cynomolgus monkey CD47-expressing cells
Description: as §2

[22] = target: T1, human CD47 ECD protein; assay: SPR Biacore T200, antibody captured on anti-human IgG Fc chip, human CD47 as analyte, 1:1 model
Description: Each antibody was captured on an anti-human IgG Fc antibody immobilized CMS sensor chip (GE). Human CD47 protein at different concentrations were injected over the sensor chip at a flow rate of 30 uL/min for an association phase of 180 s, followed by 3600 s dissociation. The chip was regenerated by 10 mM glycine (pH 1.5) after each binding cycle. The sensorgrams of blank surface and buffer channel were subtracted from the test sensorgrams. The experimental data was fitted by 1:1 model using Langmiur analysis. Molecular weight of 55 kDa was used to calculate the molar concentration of analyte antigen.

[23] = target: T1, human CD47 ECD protein; assay: competition ELISA: plate-coated human CD47 ECD (1 µg/mL), antibody titrated together with human SIRPα-His (1 µg/mL), bound SIRPα detected with anti-His-HRP
Description: 96-well plates were coated with human CD47 ECD at 1 μg/mL at 4° C. overnight and blocked with 2% BSA-PBS for 1 hr. […] The TMB peroxidase substrate solution was added and then reaction was stopped after 12 minutes using 2M HCl. All incubation steps were performed at room temperature, and the plates were washed with PBST between steps. The absorbance of the testing samples was measured at 450 nm with a multiwall plate reader. The competitive binding IC50s were calculated by using GraphPad Prism software equation: Nonlinear regression (curve fit)—log (antagonist) vs. response—Variable slope.

[24] = target: T5, human CD47 on engineered CHO-K1 cells; assay: competition FACS: CHO-K1 cells expressing human CD47, antibody titrated together with human SIRPα-His (1 µg/mL), bound SIRPα detected with anti-His-biotin and streptavidin-PE
Description: At the end, the cells were re-suspended in 100 μL 1% BSA-PBS, and the fluorescence intensity was measured by FACS (BD Canto II) and analyzed by FlowJo Version software. The competitive binding IC50s were calculated by using GraphPad Prism software equation: Nonlinear regression (curve fit)—log (antagonist) vs. response—Variable slope.

B1: W3455-4.9.9-uIgG4.SPL (antibody, V domains shown)
VH: EVQLLESGGGLVQPGGSLRLSCAASGFTFSNFAMSWVRQAPGKGLEWVSTISASGGRTFYADSVKGRITISRDNSKNTLFLQMNGLRAEDTAVYYCAKEGSFGEGVDPWGQGTLVTVSS
VL: SYEMTQPPSVSVSPGQTARITCSGDALPKKYAYWYQQKSGQAPVLVIYEDNKRPSGIPERFSGSSSGTMATLTISGAQVEDEADYYCYSTDISGNHWVFGGGTELTVLG
notes: Fully human anti-CD47 antibody; also called W3455 antibody; WBP3455-4.9.9-uIgG4.SPL
In the case of B1, the EC50 [1] is reported as 0.038 nM, the ELISA-OD450 [2] is reported as 0.0463 and the ELISA-OD450 [3] is reported as 0.0478. For the same binder, the ELISA-OD450 [4] was 0.209, the ELISA-OD450 [5] was 0.0551 and the ELISA-OD450 [6] was 0.0487. The ELISA-OD450 [7] was 0.0527, the ELISA-OD450 [8] was 0.227 and the ELISA-OD450 [9] was 0.0452. For the same binder, the ELISA-OD450 [10] was 0.0498, the ELISA-OD450 [11] was 0.138 and the ELISA-OD450 [12] was 0.324. For the same binder, the ELISA-OD450 [13] was 0.0573, the ELISA-OD450 [14] was 0.0462 and the ELISA-OD450 [15] was 0.0475. The EC50 [16] was 2.99 nM, the binding result [17] was “no binding (tested: 10 ug/ml)” and the binding result [18] was “no binding (tested: 10 ug/ml)”. The binding result [19] was “no binding (tested: 10 ug/ml)”, the EC50 [20] was 76.7 nM and the EC50 [21] was 2.71 nM. For the same binder, the Kd [22] was 0.0223 nM, the koff [22] was 2.34e-05 s⁻¹ and the kon [22] was 1.05e+06 M⁻¹ s⁻¹. For the same binder, the IC50 [23] was 3.21 nM and the IC50 [24] was 20.1 nM.
